Measurements: patent US20130289246A1 (VANDERBILT UNIVERSITY, published 2013)

Assays:
[1] = target: HA of A/Vietnam/1203/2004 (H5N1) virus (Influenza A virus (H5N1)); experiment: cell-based or functional assay
[2] = target: HA of A/Hong Kong/1/1968 (H3N2) virus (Influenza A virus (H3N2), UniProt Q91MA7 17-566); experiment: cell-based or functional assay
[3] = target: HA of A/California/04/2009 (H1N1) virus (Influenza A virus (H1N1)); experiment: cell-based or functional assay
[4] = target: HA of A/Alabama/1/1981 (H3N2) virus (Influenza A virus (H3N2)); experiment: cell-based or functional assay
[5] = target: recombinant soluble 1968 H3 HA (A/Aichi/2/1968) (Influenza A virus A/Aichi/2/1968 (H3N2), UniProt P03437 17-530); experiment: ELISA, supernate
[6] = target: recombinant soluble trimeric 1918 H1 HA (A/South Carolina/1/1918, wild type) (Influenza A virus A/South …, UniProt Q9WFX3 18-529); experiment: ELISA, supernate
recombinant soluble trimeric 1918 H1 HA (A/South Carolina/1/1918, wild type), sequence (Q9WFX3 18-529): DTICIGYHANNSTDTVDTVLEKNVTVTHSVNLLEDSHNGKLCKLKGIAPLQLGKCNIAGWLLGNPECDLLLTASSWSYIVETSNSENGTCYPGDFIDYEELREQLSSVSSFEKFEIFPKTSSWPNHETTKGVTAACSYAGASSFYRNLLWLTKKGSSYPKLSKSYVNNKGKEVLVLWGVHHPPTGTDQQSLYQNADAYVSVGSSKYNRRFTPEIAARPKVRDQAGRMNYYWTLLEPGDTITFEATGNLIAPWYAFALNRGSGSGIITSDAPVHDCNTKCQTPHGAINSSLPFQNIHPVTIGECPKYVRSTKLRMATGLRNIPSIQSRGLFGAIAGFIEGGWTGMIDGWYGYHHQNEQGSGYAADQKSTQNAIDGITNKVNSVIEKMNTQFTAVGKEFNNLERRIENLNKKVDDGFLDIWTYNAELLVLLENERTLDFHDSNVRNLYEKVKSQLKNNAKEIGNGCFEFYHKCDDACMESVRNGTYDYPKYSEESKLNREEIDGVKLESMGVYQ

B1: mAb 7A13 (antibody, V domains shown)
VH: QVQLQESAPGLVKPSGTLSLTCAVSGASLSSSDWWTWVRQPPGKGLEWIGEIHHGGSTNSNPSLQSRVTISIDKSKKQFSLKLTSVTVADTAVYYCARAPGADAGPYSENIHHWGQGTLVTVS
VL: QLVLTQSPSASASLGASVKLTCTLSSRHSDYAIGWHQQQPGKGPRYLMKLNPDGSHTKGDGIPDRFSGSSSGAERYLTISNLLSEDEADYYCQTWGTGIQVFGGGTRLTVIS
Q: What does the source list for B1?
A: HAI activity [1]: > 20 µg/mL; HAI activity [2]: 0.7 µg/mL; HAI activity [3]: > 20 µg/mL; HAI activity [4]: > 20 µg/mL; OD [5]: 0.265 OD; OD [6]: 0.076 OD

B2: mAb 11J19 (antibody, V domains shown)
VH: EVQLQESGPGLVKPSETLSLSCTVSGGSITRSSYYWGWIRQPPGKGLEWIGNIYYSGTTYYNPSLKSRVTISVDTSKNQFSLKLSSVTAADTAVYYCARLYGSGLDYWGQGTLVTVS
VL: DIQLTQSPSFLSASVGDRVTITCRASQGSSRYVAWYQQKPGKAPKLLILAASTLHTGVPSRFSGSGSGTEFTLTISSLQPEDFATYSCQQLNGFLLTFGGGTKVEIKR
Q: Which results are given for B2?
A: HAI activity [1]: > 20 µg/mL; HAI activity [2]: 2.5 µg/mL; HAI activity [3]: > 20 µg/mL; HAI activity [4]: > 20 µg/mL; OD [5]: 0.895 OD; OD [6]: 0.079 OD

B3: mAb 18G6 (antibody, V domains shown)
VH: QVQLKESGPGLVKPSETLSLTCTVSGGSISSSNYNWGWIRQPPGKGLEWIGSVYYSGSTYFNPSLKSRVTISVDTSKNQFSLKLTSVTAADTAVYYCARLIAFYYDTNGYTWGQGTLVTVS
VL: NSIMTQSPFTLSASVGDKVTITCRASQSISPWLAWYQQKPGKAPKLLIYKASSLETGVPSRFSGSESGTEFTLTISGLQPDDFATYYCQQYSSFARTFGQGTKVEIKR
Q: With B3 as the binder, how does the OD [5] read?
A: Its OD is 0.073 OD.

Q: What about the OD [6] of the same binder?
A: The OD was 0.075 OD.

B4: mAb 25J3 (antibody, V domains shown)
VH: QVQLQESGPGLVRPSETLSLTCNVSGDSINDYYWSWIRQPPGKGLEWIGYIYYSGSTNYNPSLNSRVTISVEMSKNQFSLILNSVTAADTAVYYCARVDYDSGGSFDPWGQGTLVTVS
VL: QSVLTQPPSVSGAPGQRVTISCTGSSSNIGAGYDVHWYQQLPGTAPKLLIYGNSNRPSGVPDRFSGSKSGTSASLAITGLQAEDEADFYCQSYDSRLSGYVFGTGTKVTVLG
Q: What does the source list for B4?
A: OD [5]: 0.623 OD; OD [6]: 0.07 OD
